Measurements taken from US7341730B1, “Inhibitors of angiogenesis and tumor growth” (University of Southern California, priority 1998, dated 2008).
“Also recorded” adds a separate entry of the source.

Assays:
KS Y-1 cells = test: KS Y-1 cell proliferation assay (MTT); type: cell-based; conditions: concentration not given
Method: (§1) To determine if Saposin B polypeptides had anti-angiogenic activity, a series of overlapping polypeptides were synthesized and tested in the KS Y-1 cell proliferation assay. The overlapping polypeptides are SEQ ID NOs:13 though 43. Cell Proliferation assays in either KS cells or fibroblast. Cells were plated in 48 well plates at equal numbers in appropriate culture medium. Cells were treated with the test compounds at various concentrations on day one, and on day 3. MTT was done on day 5. KS cells were used to represent the activated endothelial cells, while fibroblast cells represent the control cells. The results are remarkable for the lack of toxicity to the fibroblast relative to the activated endothelial cells/KS cells.

fibroblast cells (T1) = test: Fibroblast proliferation assay (MTT), control cells; type: cell-based
Method: as §1

KS cell lines [1] = test: KS cell migration in transwell plates; type: cell-based; conditions: for % Cells Migrating Through Membrane (of Control): KS cell lines
Method: The assays were done in double chamber wells separated by fibrinogen-coated membrane. Chemotaxis was induced by bFGF (25 ng/mL) in the lower chamber. Endothelial cells or KS cells (5×10^4/mL) were placed in the upper chamber in the presence and absence of test polypeptides. Taxol at 10 ng/mL was used as a known inhibitor of migration. Cell migration across the membrane was quantitated after an overnight incubation.
Angiogenesis is mediated by complex biochemical processes including degradation of the basement membrane under existing blood vessel endothelial cells, followed by proliferation and migration of endothelial cells, followed by formation of capillary loops, and recruitment of vascular smooth muscle cells to encase the newly formed vessels and provide stability. KS and endothelial cell migration in the presence of Saposin B was studied in transwell culture plates with 8 μm pore membranes (Costar, Cambridge, Mass.).
Briefly, wells were coated with fibronectin (25 μg/mL) overnight, and endothelial cells or KS cells were plated in the upper chamber with 100 μL of DMEM/0.4% FCS. 500 μL of DMEM/0.4% FCS was added to the lower chamber and incubated at 37° C. for one hour. The test polypeptides, at various concentrations, were added to the upper chamber, and chemotactic agents (VEGF or bFGF at 20 ng/mL) were added to the lower cell-culture chambers. The plates were incubated for 5 hr at 37° C. and the cells crossing the fibronectin-coated membrane were counted after wiping the cells off the membrane in the upper chamber with a cotton swab.
The cells that traversed the membrane were fixed with Diff-Quik stain according to the manufacturer's instruction (Dade Diagnostics Inc., Aguada, PR). The cells were counted under a microscope at 320× in four randomly selected fields. The experiments were done in duplicate and repeated at least three times.

KS cell lines [2] = test: Growth inhibition of KS cell lines by recombinant proteins; type: cell-based; conditions: recombinant or naturally occurring protein
Method: (§2) Typically, in an anti-proliferation assay, the suppression of growth in the presence of the compound to be tested is measured. For example, the above cells are incubated with the polypeptides of this invention for a suitable time and the decrease in the growth rate relative to a negative control, i.e., cells of the same cell line which have been incubated in media alone, is measured. Growth of the cell culture can be measured by any method acceptable to one of skill, including but not limited to, 3H-thymidine uptake, cell counting and tetrazolium dye uptake.
(§3) By SDS-PAGE, the bacterial product was smaller than the eukaryotic protein. Because prokaryotically expressed proteins are not glycosylated, the difference in molecular weights probably represents the presence of carbohydrate in the eukaryotic protein. Recombinant proteins were then tested in KS, endothelial and control cell lines. Activity was found only in KS cell lines and endothelial cells.

[3] = tested on: endothelial cells (HUVEC); test: Growth inhibition of endothelial cells; type: cell-based
Method: as §2, §3

[4] = tested on: angiogenesis induced by VEGF or bFGF in chicken allantoic membrane (CAM); test: Chicken allantoic membrane (CAM) angiogenesis assay; type: in vivo; conditions: 48 hours
Method: In order to test anti-angiogenic activity, chicken allantoic membrane (CAM) assays were performed with recombinant Saposin B. Ten day old fertilized chicken eggs were prepared for assay by creating a window in the egg shell, and placing filter paper discs saturated with VEGF or bFGF as positive controls, test compounds, or carrier buffer (negative controls) on the allantoic membrane. The membranes were harvested after 48 hours and analyzed using an Olympus stereomicroscope. The number of branching blood vessels that infiltrated under the discs were counted and photographed. Eight CAMs were studied for test group, and the experiments were repeated at least twice.

[5] = tested on: CD34+/Flk-1+ cells from cord blood; test: Growth of CD34+/Flk-1+ progenitors on fibronectin coated dishes; type: cell-based, human; conditions: 50 ng/mL
Description: A bone marrow derived human CD34+/Flk-1+ progenitor cell can be mobilized into the blood stream in response to tumor induced signals such as VEGF and cytokine production. These cells can target to sites of angiogenesis where they mature into activated endothelial cells and thus contribute to the generation of new blood vessels at the tumor site. By blocking the production of these cells or by targeting these cells (i.e., the CD34+/Flk-1+ progenitors and the activated endothelial cell they can become), the angiogenesis/vasculogenesis required for tumor growth can be reduced or halted. […] The adherent cells take on a spindle-shaped morphology characteristic of the activated vascular endothelial cells typical of the angiogenic process. These cells express endothelial-specific markers including factor VIII, ulex europaeus agglutinin-1 (UEA-1), endothelial constitutive nitric oxide synthase (ecNOS), and E selectin. Further, when these cells (peripheral blood Flk+ progenitors) are infused into mice, they incorporate into newly formed blood vessels at site of injury. These observation identify CD34+/Flk-1+ bone marrow derived progenitors as a putative precursor to vascular endothelial cells. Preventing these cells from colonizing at distal sites of angiogenesis in tumors has enormous implication for the treatment of tumors. […]

[6] = tested on: CD34+ cord blood derived cells; test: Viability of CD34+ cord blood derived cells; type: cell-based, human
Description: However in the presence of Saposin B, CD34^+/Flk-1^+ progenitor growth was inhibited.
Saposin B was found not to be toxic to most CD34^+ cord blood derived cells, since the difference in viability of Saposin B treated CD34^+ cells was only around 20% when compared to control cells. Thus Saposin B not only targets fully differentiated and activated endothelial cells, but also a circulating progenitor, previously shown to target angiogenic sites.

[7] = tested on: Human bone marrow cells and peripheral blood mononuclear cells; test: Stem cell clonogenic assays in methylcellulose; type: cell-based; conditions: VEGF 10 and 100 ng/mL
Method: Human bone marrow cells and peripheral blood mononuclear cells were harvested from a subject after the administration of high doses of cyclophosphamide and G-CSF. Stem cell clonogenic assays in methylcellulose were performed with IL-3, erythropoietin, and VEGF (10 ng/mL, and 100 ng/mL). VEGF was used to determine if there are progenitor cells with self replication capacity but without adherence to extracellular matrix such as fibronectin. It was also desirable to determine if Saposin B was toxic to endothelial cell specific progenitors for hematopoietic (myeloid or erythroid) lineage cells.
These colonies contained mixture of cells indicating more than one cell lineage generated in response to VEGF. The colonies also contained spindle shaped cells which mark the presence of VEGF receptors.

KS-SLK or KS Y-1 tumors = test: KS tumor growth in nude mice; type: in vivo
Method: FIG. 6: Effect of pentapeptide DVCQD (SEQ ID NO:28) on the growth of established KS Y-1 tumors in mice. Mice were implanted with the tumor on day one. Treatment with the peptide was started on the following day at a dose of 50 mg/kg subcutaneously daily. […] The arrow marks initiation of daily subcutaneous dosing.
In order to determine the anti-angiogenic activity of the recombinant Saposin B, tumor cells were implanted in immuno-deficient mice and treated with either Saposin B or buffer alone.
Nude mice were injected with 2×10^6 KS-SLK or KS Y-1 cells subcutaneously in a total volume of 100 μL. After one week of tumor development, the mice were injected subcutaneously daily with either PBS or Saposin B at concentrations of 1, 10 and 20 mg/kg for a total protein concentration of […]. The tumor size was measured three times a week. The results represent the median of 4 mice in each group.
(§4) To determine whether this anti-tumor effect was reproducible with different classes of syngeneic-tumors, C57BL/6 mice were implanted with Lewis lung carcinoma, melanoma (B16), and T-cell lymphoma (EL-4) cell lines. KS Y-1 was implanted into nude mice for a positive control. The day following tumor implantation, 2.5 mg/kg of Saposin B was administered intraperitoneally. Tumor size was measured three times a week for two weeks at which time the mice were sacrificed for analysis. […] See, FIG. 4
In further experiments, KS tumors were allowed to grow for five days before treatment with Saposin B (1 and 5 mg/kg daily at a distal site from the timer tumor). In control mice, tumors grew to a weight of 555+mg. […] Tumors excised at the conclusion of the experiments were also examined for apoptosis, blood vessel density, and mitotic index. […] Thus, contrary to the results in vitro, Saposin B has an inhibitory effect against […] tumors.

Lewis lung carcinoma = test: Syngeneic tumor growth in C57BL/6 mice, Lewis lung carcinoma; type: in vivo; conditions: 2.5 mg/kg from the day following implantation, two weeks
Method: (§5) FIG. 4: Inhibition of tumor growth in mice. C57BL/6 mice were implanted with Lewis lung carcinoma, melanoma (B 16), and T-cell lymphoma (EL4). KS Y-1 was implanted in nude mice as a positive control. One day after implantation 2.5 mg/kg of Saposin B was injected into the mice subcutaneously.
as §4

melanoma (B16) = test: Syngeneic tumor growth in C57BL/6 mice, melanoma (B16); type: in vivo; conditions: 2.5 mg/kg from the day following implantation, two weeks
Method: as §5, §4

T-cell lymphoma (EL-4) = test: Syngeneic tumor growth in C57BL/6 mice, T-cell lymphoma (EL-4); type: in vivo; conditions: 2.5 mg/kg from the day following implantation, two weeks
Method: as §5, §4

[8] = KS tumors grown five days before treatment, 1 and 5 mg/kg daily

GDVCQDCIQMV [SEQ ID NO:19]
Cell Proliferation Activity (% of control), KS Y-1 (KS Y-1 cells; KS Y-1, first value column): 28 % of control | Cell Proliferation Activity (% of control), KS Y-1 (KS Y-1 cells; KS Y-1): 8 % of control | Fibroblast Proliferation, % of Control (fibroblast cells (T1); 1 μg/mL): 91.3 % of Control | Fibroblast Proliferation, % of Control (fibroblast cells (T1); 10 μg/mL): 91.3 % of Control | % Cells Migrating Through Membrane (of Control) (KS cell lines [1]; 1 μg/mL): 78.23% | % Cells Migrating Through Membrane (of Control) (KS cell lines [1]; 10 μg/mL): 40.32% | % Cells Migrating Through Membrane (of Control) (KS cell lines [1]; 50 μg/mL): 20.98%

B1: Prosaposin: 70 kD glycoprotein, precursor of Saposin A, B, C and D; naturally occurring full-length (protein, listed as Homo sapiens)
chain: MYALFLLASLLGAALAGPVLGLKECTRGSAVWCQNVKTASDCGAVKHCLQTVWNKPTVKSLPCDICKDVVTAAGDMLKDNATEEEILVYLEKTCDWLPKPNMSASCKEIVDSYLPVILDIIKGEMSRPGEVCSALNLCESLQKHLAELNHQKQLESNKIPELDMTEVVAPFMANIPLLLYPQDGPRSKPQPKDNGDVCQDCIQMVTDIQTAVRTNSTFVQALVEHVKEECDRLGPGMADICKNYISQYSEIAIQMMMHMQPKEICALVGFCDEVKEMPMQTLVPAKVASKNVIPALELVEPIKKHEVPAKSDVYCEVCEFLVKEVTKLIDNNKTEKEILDAFDKMCSKLPKSLSEECQEVVDTYGSSILSILLEEVSPELVCSMLHLCSGTRLPALTVHVTQPKDGGFCEVCKKLVGYLDRNLEKNSTKQEILAALEKGCSFLPDPYQKQCDQFVAEYEPVLIEILVEVMDPSFVCLKIGACPSAHKPLLGTEKCIWGPSYWCQNTETAAQCNAVEHCKRHVWN
modifications: prosaposin
notes: 70 kD glycoprotein, precursor of Saposin A, B, C and D; naturally occurring full-length
growth inhibition / activity against KS cell lines (KS cell lines [2]): no activity | growth inhibition / activity against endothelial cells [3]: no activity

B2: Saposin B: polypeptide fragment of Prosaposin, positions 190 to 269 (SEQ ID NO:2); tested as recombinant protein (protein, listed as Homo sapiens)
chain: GDVCQDCIQMVTDIQTAVRTNSTFVQALVEHVKEECDRLGPGMADICKNYISQYSEIAIQMMMHMQPKEICALVGFCDEVK
modifications: Saposin B
notes: tested as recombinant protein
inhibition of KS cell migration (KS cell lines [1]; chemotaxis induced by VEGF or bFGF): compete inhibition of cell migration | growth inhibition / activity against KS cell lines (KS cell lines [2]): dose dependent growth inhibition | growth inhibition / activity against endothelial cells [3]: dose dependent growth inhibition | inhibition of angiogenesis (number of blood vessel branches) in CAMs [4]: effectively blocked angiogenesis; also recorded: inhibited by Saposin B in a dose-dependent fashion | CD34+/Flk-1+ progenitor growth [5]: inhibited | difference in viability of treated CD34+ cells compared to control cells [6]: around 20% | effect on colonies generated with VEGF [7]: loss of spindle shaped cells | tumor growth (KS-SLK or KS Y-1 tumors; KS Y-1 in nude mice, 2.5 mg/kg from the day following implantation, two weeks): profound inhibition of tumor growth | apoptosis in excised tumors (KS-SLK or KS Y-1 tumors; [8]): increase in apoptosis | blood vessel density in excised tumors (KS-SLK or KS Y-1 tumors; [8]): decrease in blood vessel density | weights of excised tumors relative to controls (KS-SLK or KS Y-1 tumors; [8]): approximately 23% | tumor growth (KS-SLK or KS Y-1 tumors; nude mice, KS-SLK or KS Y-1, subcutaneously daily after one week, 1, 10 and 20 mg/kg): markedly retarded | tumor growth (Lewis lung carcinoma): profound inhibition of tumor growth | tumor growth (melanoma (B16)): profound inhibition of tumor growth | tumor growth (T-cell lymphoma (EL-4)): profound inhibition of tumor growth
